These results are taken from a protein production outcome set (Wang et al. 2014).
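Also: failed if final PepcDB status was selected cloned or expressed and not failed if soluble or beyond.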

The data set can be described thus: label from the status in PepcDB records.
Regarding “MNVVRYTPWPGQAALQNEIKQVFDRFFEHNGDTDESAVVTAQWVPRVDIKEEPNQFVLYADLPGIDPADIEVQMDKGILSIKGERKTESSSQTEHFSRIERRYGSFHRRFALPDSADADGITASGSHGVLRILIPKQAATTPRRIQVGNAVSSDVALQSMLEHHHHHH”, the protein production entry is given as “not failed”. The same measure for “MNVYFLGGGNMAAAVAGGLVKQGGYRIYIANRGAEKRERLEKELGVETSATLPELHSDDVLILAVKPQDMEAACKNIRTNGALVLSVAAGLSVGTLSRYLGGTRRIVRVMPNTPGKIGLGVSGMYAEAEVSETDRRIADRIMKSVGLTVWLDDEEKMHGITGISGSGPAYVFYLLDALQNAAIRQGFDMAEARALSLATFKGAVALAEQTGEDFEKLQKNVTSKGGTTHEAVEAFRRHRVAEAISEGVCACVRRSQEMERQYQ”: “not failed”; for “MNWQLKSKEAEVMNKLSLFLGCIVPNRYPGIEKATKLCLQRLEIDACDLPGASCCPAPGVFKSFDKATWLALASRNIVLSERMERDVLTVCNGCYGSLADANMELKKDPEMKACTNSCLKEIGMEFRGTSEIRHIIEFLYKEFGPEKLKEYITTPLDLKVALHYGCHLIKPSKDRNLGDTESPVFFDELVEATGAKSVDYTDKMMCCGAGGGVRSGYADESLEMLEHKLDCICKAGVDCIVNACPFCHLQFDRGQIAVNEKFGTDYSIPVLHYSQLLGLALGFSPDQLGIEQNAVQNIEFLAKIYEISAGLS”: “failed”; for “MNYASNTFELIAKEWLQMKDWAEITKTRRLDMLERVVFPAIGKLPVREITPHHILKILQETAKRGAPTVAAEARRTISSVFELAVATLRADSDPVWPVRKALPANKTQHLEHHHHHH”: “not failed”. Then “MNYILHLSILLVVAKLLEWLFEKKDIHPIIAHILTGIILGPFLLGIIYPNEELKVLSEFGLIMMMLYMGLTSNFSAIAQNKVKAIVVASLGVAFSFILGFTTVYLFGKGISAALFVGITLGNTAIEVTSGVIMKERIKREISSVLMGAAFADDIIAVYLIGILTGMIKGQTSLLSLAILTIKIVAFILSVLIFSEFVFKKSSLIYNLVIKDLNVFFTFTIILTFSLAVIAEGIGLNRIIGAYLAGLTISRLRERKDPLIISRIKLNELINELQVVLTEFFIPLFFIYVGLMFDPDTSEINLLLIALLYASAILGKLIGCGLGVKVFKGSWKDAVIVGIGMGGRGSLDLALLKFGLESGMIGEDLFATTVIVSMLTALSTPIFFRKTVKKLSEE”, with “failed”; and “MNYPLTLEMDLENLEDLFWELDRLDNYNDTSLVENHLCPATEGPLMASFKAVFVPVAYSLIFLLGVIGNVLVLVILERHRQTRSSTETFLFHLAVADLLLVFILPFAVAEGSVGWVLGTFLCKTVIALHKVNFYCSSLLLACIAVDRYLAIVHAVHAYRHRRLLSIHITCGTIWLVGFLLALPEILFAKVSQGHHNNSLPRCTFSQENQAETHAWFTSRFLYHVAGFLLPMLVMGWCYVGVVHRLRQAQRRPQRQKAVRVAILVTSIFFLCWSPYHIVIFLDTLARLKAVDNTCKLNGSLPVAITMCEFLGLAHCCLNPMLYTFAGVKFRSDLSRLLTKLGCTGPASLCQLFPSWRRSSLSESENATSLTTF”, with “failed”. The same measure for “MNYRLIPALFLIVMGALFLLDNLGLAHMDVGNLIATWWPVFLIAAGVRQLLRYRQRAAATC”: “failed”. “MNYSHPISLKTLVQEDDIGVNAPIIHQSVIARLTAGLYPLYQSKKIPFEPLPETMLTEGYSSPVPDVLLYDHQTEEAKVIIEVCQNSGLKHDTSKIVKLIEDNAYGILEGFVFNYKTQQWLRYRLGDGGVATNSSFSEVLQVDLNTFV”: the protein production entry is recorded as “not failed”.

On to “MNYVVLGASAAGINAVKTLRELDKDSNIVVISKDENVYSRCMLHHVISEHRTLKQINFVDEDFMEQNNVKWIAGKTVKGIDINKKVVQTEDITVNYDKLLIATGASSAIPPIKNLRDGNFVYSVRNIDDIYKIKEKAQNSKNVVIIGAGLVGIDALVGLFKYEQLNISVAFMEKYILDRQLDEYTASVYENKFKEKGVKFYPSASIQEIVLDNSKNVTGVAFSNGEVLDADMVIVATGVKPNADFLDGTGIEYDRGIIIDDMCQTTQKDIYAAGDVVGKNAIWPLAVKQGIVAAYNMVGKDKKIEDEFAFKNSMNFMDIPTISIGMNTPVDDSYKVLTRHGINDYKKFVFKDNVIYGAVIQGDISYVGVLTYLIKNKVEIYDLENRIFDICYADFFNIKENGEFCYSV”, for which the protein production entry was “failed”. The same measure for “MPAAHPSAISFARQTKAIAMAAKIVPAPDYEDRVRASFARQQAMATIGAELTLVTPGIIEIEMPYSAALTQQHGFLHAGVISTALDSACGYAAFSLMPENSGVLTIEFKVNLLAPGRGERFLFRGSVTKPGRTIIVADGQAYAFAADGEAKLIATMTGTMMTVVGRDGIAG”: “failed”; for “MPAFVTFGRILFAVLFIYTGATKLFAIQATADFIATKVVVPDIIAPYAKQIETATAMTTPQLLAIAVGALEIIAGLMIALNFGARFFAMLLIVYVAVATVLFYDFWNLAAPDNAKMLVDALKNLSIIGALCMIIGYGRATRPVEAAYGDV”: “failed”; for “MPAGAVRRRLGRRAGGWENGGMSDSSPARPAAPVLDVWCELQCPDCHTALDDVRALRARYGDRLEVRLRHFPLEKHKYAFAAAQAAEEAVAQGRGWPYAEAVLDRVAELDRKGEPFLVEVARELGLDAEEFDTALIDGRHILIVDADQAEGKAIGVTGTPTYVIGGERLDGGKSQDGLRERIEEIADRLLAQPRD”: “failed”. The same measure for “MPAIQSELDVNGEDFARNREAMLAAVAGFRELEQKVLDKAAEARPKFEKRGQLLPRERLALLLDPGAPFLELSSLAGYKLHDDKDGTQAGGGIIAGIGYIAGVRCLVSASNSAIKGGTISPTGLKKTLRLQQIAMENKLPVVTLTESGGANLNYAAEIFVEGARGFANQARISAMGIPQVTVVHGSSTAGGAYQPGLSDYVVVVRGKAKMFLAGPPLLKAATGEIASDEELGGAELHAQVAGTAEYLAENDADGVRLAREIVGMLPWNAQLPARPARSWREPLYPVEELLGVVPADPKKPYDVREIVARIADGSEFLDFKNEFDGQTVCGHLRIEGHACGLIGNNGPITPQGAAKAAQFIQLCEQSNTPLLFLHNTTGFMVGTESERQGVIKHGSKMIQAVANARVPKLTLVVGGSYGAGNYAMCGRGLDPRFIFAWPNSRTAVMGGAQAGKVLRIVTEEKHAKEGKEADPKMLEMLETVTAQKLDSQSTALYGTASLWDDGLVDPRDSRRLLGYLLDICAEAEARPLKGNSFGVAR”: “not failed”.

Regarding “MPAKDVQICPIAVDTTVFRSRTWDRLKFEIEYGLQRGTTANSYLISADKIALFDPPGESFTDNFVGTLIQRLDLNSLDYVILGHVNANRAHTLKLLLSLAPQATIICSNPAAQNLEKLLADAEVNNPIQVMKGNDHLDLGRGHELTFIPTPSPRYPGQLCTYDPRTEILFTDKLFGAHVCGDQVFDEGWTIYQEDRRYYFDCLLAPAAAQVSAALNKLEAYPAQTYAPSHGPLVRYGLRELTRNYQQWLSEQQAQALEHHHHHH”, the protein production result is recorded as “failed”. The same measure for “MPALSGPQYLGEGLKLIMRPGLRLFVLIPLTLNLLVFALLIGFAMQQFSHWVDLLMPSLPDWLSFLQYIVWPLFVLLVLVIVFFTFTMVANIISAPFNGFLSEKVEVVVRGRDDFPPFSWAELLAMIPRTMGREMRKLAYFLPRALVLLVLSFVPGVNLIATPLWILFGIWMMAVQYIDYPADNHKLGWNEMLAWLRSKRWACMGFGGVTYLALLIPLVNLVMMPAAVAGATLFWVREEGERALVK”: “failed”; for “MPANPRILETMSQLFVSFPHCATLGFEYVGTDGRKPTLKLQWREDLVGNPATGILHGGVITSLVDTCSAIAVTAHLPELETIATLDLRIDYLKSATPGKAIHCTAECYRLASQIAFTRAVCYHDNPADPIAHGVATFMRESSLEHHHHHH”: “failed”; for “MPAPRYKSGSSKKVYRKAPGNSSIVHYRRKKQSKAVCGACGALLNGVPRGRAVEITKLAKTEKRPERPFGGNLCPKCVKKMMVAKARNFLEHHHHHH”: “not failed”.
